The chains are these.
T1: purified human Sortilin extracellular domain (produced in stably transfected CHO cells) (human, UniProt Q99523 78-755)
T1 construct: also called immobilized Sortilin
T1 sequence: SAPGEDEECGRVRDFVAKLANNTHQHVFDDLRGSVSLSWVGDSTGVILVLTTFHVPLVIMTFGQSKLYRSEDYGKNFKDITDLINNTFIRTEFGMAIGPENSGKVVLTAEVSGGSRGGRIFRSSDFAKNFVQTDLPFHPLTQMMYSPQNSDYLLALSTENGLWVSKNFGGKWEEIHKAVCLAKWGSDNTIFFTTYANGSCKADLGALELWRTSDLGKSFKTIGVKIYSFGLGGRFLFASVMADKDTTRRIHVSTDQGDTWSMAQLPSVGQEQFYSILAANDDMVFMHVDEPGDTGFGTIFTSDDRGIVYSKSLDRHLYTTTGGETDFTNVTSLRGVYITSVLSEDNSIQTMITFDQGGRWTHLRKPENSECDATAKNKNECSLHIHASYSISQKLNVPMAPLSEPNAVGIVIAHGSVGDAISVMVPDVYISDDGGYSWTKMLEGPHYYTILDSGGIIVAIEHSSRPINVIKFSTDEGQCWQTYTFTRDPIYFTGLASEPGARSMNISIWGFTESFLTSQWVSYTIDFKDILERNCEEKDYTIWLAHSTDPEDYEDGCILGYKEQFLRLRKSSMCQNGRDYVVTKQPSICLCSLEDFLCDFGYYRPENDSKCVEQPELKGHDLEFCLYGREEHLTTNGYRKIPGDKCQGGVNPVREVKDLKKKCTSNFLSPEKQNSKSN

B1: Mature recombinant human BDNF (Promega #G1491) (ligand)
chain: HSDPARRGELSVCDSISEWVTAADKKTAVDMSGGTVTVLEKVPVSKGQLKQYFYETKCNPMGYTKEGCRGIDKRHWNSQCRTTQSYVRALTMDSKKRIGWRFIRIDTSCVCTLTIKRGR
notes: Bought protein; also called mature BDNF
B2: Mature murine NGF (Austral Biologicals) (ligand, mouse, UniProt P01139 122-241, looked up)
chain: SSTHPVFHMGEFSVCDSVSVWVGDKTTATDIKGKEVTVLAEVNINNSVFRQYFFETKCRASNPVESGCRGIDSKHWNSYCTTTHTFVKALTTDEKQAAWRFIRIDTACVCVLSRKATRRG
notes: mature; Bought protein
B3: recombinant human p75 neurotrophin receptor/Fc chimera (R&D systems) (Fc fusion, UniProt P08138 29-250, looked up)
chain: KEACPTGLYTHSGECCKACNLGEGVAQPCGANQTVCEPCLDSVTFSDVVSATEPCKPCTECVGLQSMSAPCVEADDAVCRCAYGYYQDETTGRCEACRVCEAGSGLVFSCQDKQNTVCEECPDGTYSDEANHVDPCLPCTVCEDTERQLRECTRWADAECEEIPGRWITRSTPPEGSDSTAPSTQEPEAPPEQDLIASTVAGVVTTVMGSSQPVVTRGTTDN
notes: Bought from R&D systems; also called p75-IgG-Fc chimeric protein; p75^NTR; not shown: IgG Fc part of the bought chimera

Assay [1] concerns the target T1, purified human Sortilin extracellular …. Briefly: SPR (Biacore), immobilised Sortilin extracellular domain (94 fmol/mm2); mature BDNF from Promega (#G1491), lower panel of FIG. 7.
Assay [2] shares this target. The assay can be described thus: SPR (Biacore), immobilised Sortilin extracellular domain; other preparations of mature BDNF. In general terms: SPR reads the build-up and loss of mass on a sensor chip optically.
For assay [3], the target named is T2, recombinant human TrkA/Fc chimera (R&D systems) (human, UniProt P04629-2 33-407).
T2 construct: Bought from R&D systems; also called TrkA-IgG-Fc; not shown: IgG Fc part of the bought chimera
Briefly: SPR (Biacore), 50-500 nM NGF over immobilised TrkA-IgG-Fc.

For assay [4], the target named is B3. The assay can be described thus: SPR (Biacore), 50-500 nM NGF over immobilised p75-IgG-Fc.
Assay [5] has as its target T1, purified human Sortilin extracellular …. The assay can be described thus: SPR (Biacore), 50-500 nM NGF over immobilised Sortilin extracellular domain.
Assay [6] shares this target. Briefly: SPR (Biacore), NGF at 200 and 500 nM over immobilised Sortilin extracellular domain; the text gives ~8 nM for this pair.
The target of assay [7] is T3, Human recombinant proNGF (produced and purified in E. coli) (human, UniProt P01138 19-241).
T3 construct: Made as in Rattenholl et al 2001
The assay can be described thus: SPR (Biacore), 25-500 nM proNGF over immobilised p75-IgG-Fc.

T3 sequence (P01138 other isoform, or with tags, fused parts or gaps limits assumed): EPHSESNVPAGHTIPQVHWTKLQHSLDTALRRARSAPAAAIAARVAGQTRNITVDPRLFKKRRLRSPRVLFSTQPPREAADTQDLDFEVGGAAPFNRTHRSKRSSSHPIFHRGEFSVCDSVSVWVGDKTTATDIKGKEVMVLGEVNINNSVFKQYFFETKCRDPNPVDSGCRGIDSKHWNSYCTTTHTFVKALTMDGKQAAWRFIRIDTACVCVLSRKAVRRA
T2 sequence (P04629 other isoform, or with tags, fused parts or gaps mutant): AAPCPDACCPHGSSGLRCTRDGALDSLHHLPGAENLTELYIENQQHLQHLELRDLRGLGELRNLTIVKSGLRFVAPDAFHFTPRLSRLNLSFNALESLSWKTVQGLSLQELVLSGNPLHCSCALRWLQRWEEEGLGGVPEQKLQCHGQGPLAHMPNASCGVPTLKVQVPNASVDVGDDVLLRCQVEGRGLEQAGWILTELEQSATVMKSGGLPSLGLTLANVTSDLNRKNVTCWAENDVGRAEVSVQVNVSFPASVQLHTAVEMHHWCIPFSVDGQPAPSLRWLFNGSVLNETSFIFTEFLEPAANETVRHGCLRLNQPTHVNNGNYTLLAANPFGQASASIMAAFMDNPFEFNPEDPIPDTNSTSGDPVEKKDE

By Kd is commonly meant a measure of binding affinity in units of concentration. Regarding B1, the Kd in assay [1] is around 40 nM; in assay [2], 10 nM.

Take B2: the Kd was around 2 nM in assay [3], around 1 nM in assay [4], around 8 nM in assay [5] and around 87 nM in assay [6].

For B3, the Kd in assay [7] was around 12 nM.

The values above are taken from patent publication US20150023971A1 (H LUNDBECK A S, published 2015).
